Legend:
[1] = target: T1, cellular CD73 on A375 cells (Homo sapiens, UniProt P21589); assay: Cellular CD73 inhibition (AMP-Glo), A375 cells; type: cell-based; conditions: 100 μM AMP, 3 hours
T1 construct: endogenous in cells; host or cells: A375
T1 sequence (P21589 27-549): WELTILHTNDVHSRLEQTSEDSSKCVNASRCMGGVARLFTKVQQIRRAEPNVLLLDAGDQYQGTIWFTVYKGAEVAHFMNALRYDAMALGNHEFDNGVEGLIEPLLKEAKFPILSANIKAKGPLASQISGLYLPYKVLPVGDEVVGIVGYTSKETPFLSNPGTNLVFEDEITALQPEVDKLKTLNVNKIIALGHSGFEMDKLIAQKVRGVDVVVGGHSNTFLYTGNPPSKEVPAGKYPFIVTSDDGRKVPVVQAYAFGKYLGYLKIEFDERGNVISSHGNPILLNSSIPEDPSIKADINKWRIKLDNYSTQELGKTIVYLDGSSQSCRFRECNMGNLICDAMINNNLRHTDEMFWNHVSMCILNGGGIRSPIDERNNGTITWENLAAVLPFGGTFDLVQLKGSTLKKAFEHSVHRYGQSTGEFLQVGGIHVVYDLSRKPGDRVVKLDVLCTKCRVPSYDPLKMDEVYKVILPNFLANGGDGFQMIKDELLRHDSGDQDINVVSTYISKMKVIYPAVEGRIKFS
Protocol: To measure ability of anti-CD73 antibody to inhibit CD73 activity on cells, A375 and MDA-MB-231 cells were washed with serum free RPMI media (ThermoFisher) and plated in 96-well plates at a concentration of 8×10^4 cells/well for A375 or 1×10^4 cells/well for MDA-MB-231. The cells were incubated with the indicated concentration of antibodies or APCP at 37° C. 5% C02 for 30 minutes (FIG. 3A, FIG. 3B, and FIG. 3C). Next, adenosine monophosphate (AMP) was added to a final concentration of 100 μM and cells were incubated an additional 3 hours at 37° C. 5% CO2. Plates were centrifuged for 1-2 minutes at 300 g and 25 μL of supernatant was transferred into a new 96-well plates. AMP-Glo Assay was used according to the manufacturer's instructions (Promega). Relative luminescence unit (RLU) is directly correlated with the AMP concentration in this assay. Results are depicted in FIG. 3A, FIG. 3B, and FIG. 3C. The ability of 3-[…] to inhibit CD73 activity on cells was evaluated as described in Example 3, above. Results are depicted in FIG. 8A and FIG. 8B.

[2] = target: T2, cellular CD73 on MDA-MB-231 cells (Homo sapiens, UniProt P21589); assay: Cellular CD73 inhibition (AMP-Glo), MDA-MB-231 cells; type: cell-based; conditions: 100 μM AMP, 3 hours
T2 construct: endogenous in cells; host or cells: MDA-MB-231
T2 sequence (P21589 27-549): T1 sequence (P21589 27-549)
Protocol: To measure ability of anti-CD73 antibody to inhibit CD73 activity on cells, A375 and MDA-MB-231 cells were washed with serum free RPMI media (ThermoFisher) and plated in 96-well plates at a concentration of 8×10^4 cells/well for A375 or 1×10^4 cells/well for MDA-MB-231. The cells were incubated with the indicated concentration of antibodies or APCP at 37° C. 5% C02 for 30 minutes (FIG. 3A, FIG. 3B, and FIG. 3C). Next, adenosine monophosphate (AMP) was added to a final concentration of 100 μM and cells were incubated an additional 3 hours at 37° C. 5% CO2. Plates were centrifuged for 1-2 minutes at 300 g and 25 μL of supernatant was transferred into a new 96-well plates. AMP-Glo Assay was used according to the manufacturer's instructions (Promega). Relative luminescence unit (RLU) is directly correlated with the AMP concentration in this assay. Results are depicted in FIG. 3A, FIG. 3B, and FIG. 3C. […] Results are depicted in FIG. 8A and FIG. 8B. […] Cells were incubated with the indicated concentration of antibodies or APCP at 37° C. 5% CO2 for 30 minutes. Next, AMP was added to a final concentration of 100 μM and cells were incubated an additional 3 hours at 37° C. 5% CO2. Plates were centrifuged for 1-2 minutes at 300 g and 25 μL of supernatant was transferred into a new 96-well plates. AMP-Glo Assay was used according to the manufacturer's instructions. […]

[3] = target: T3, recombinant human CD73 (rhuCD73) (SEQ ID NO:70) (Homo sapiens, UniProt P21589); assay: Soluble CD73 inhibition (AMP-Glo); type: biochemical; conditions: 0.008 μg/mL rhuCD73, 100 μM AMP
T3 sequence (P21589 27-549): T1 sequence (P21589 27-549)
Protocol: To measure the ability of the CD73 antibodies to inhibit CD73 activity of recombinant protein, recombinant human CD73 (rhuCD73) (SEQ ID NO:70) was added to 96-well plates at a final concentration of 0.008 μg/mL with the indicated concentration of antibodies (FIG. 4) or adenosine 5′-[α,β-methylene]diphosphate (APCP) and incubated at 37° C. 5% CO2 for 30 minutes. After the 30 minute incubation, AMP was added to a final concentration of 100 μM and the reactions were incubated an additional 3 hours at 37° C. 5% CO2. 25 μL of supernatant was transferred into new 96-well plates. The AMP-Glo Assay was used according to the manufacturer's instructions. RLU is a directly correlated with the AMP concentration in this assay. Results are depicted in FIG. 4.
Results are depicted in FIG. 9.

B1: CL25: chimeric anti-human CD73 monoclonal antibody, murine VH SEQ ID NO:26 and VL SEQ ID NO:27 with human IgG1 Fc (antibody, V domains shown)
VH: QVQLQQSGAELARPGASVKLSCRASGYTFTSYGLSWVKQRTGQGLEWIGEIYPGSGNTYYNEKFKGKATLTADKSSSTAYMELRSLTSEDSAVYFCARYDYLGSSYGFDYWGQGTTLTVSS
VL: DIVMTQSHKFMSTSVGDRVSITCKASQDVSTAVAWYQQKPGQSPKLLIYSASYRYNGVPDRFTGSGSGTDFTFTISSVQAEDLAVYYCQQHYNTPYTFGGGTKLEIK
modifications: human IgG1 Fc constant regions without entry
In the case of B1, the “cellular CD73 inhibition” value [1] is reported as “good potency”, the “cellular CD73 inhibition” value [2] is reported as “good potency” and the “hook-effect in inhibition of recombinant CD73” value [3] is reported as “no hook-effect”. For the same molecule, the “inhibition of recombinant CD73” value [3] was “high potency”.
